Assay results taken from the RNAGym collection of RNA variant scans (doi:10.1073/pnas.2313332121).
This sample holds only a part of the variants without activity.

B1: TPR 5TU (parent)
chain: GGAUCUUCUCGAUCUAACAAAAAAGACAAAUCUGCCACAAAGCUUGAGAGCAUCUUCGGAUGCAGAGGCGGCAGCCUUCGGUGGCGCGAUAGCGCCAACGUUCUCAACUAUGACACGCAAAACGCGUGCUCCGUUGAAUGGAGUUUAUCAUG

Variants of: B1
Experiment: polymerase ribozyme fitness, log enrichment relative to wild type (log ratio); higher = more active; in vitro selection for triplet polymerase activity
In short: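 Input and output libraries were sequenced on Illumina after a single in vitro selection round, run in triplicate on PCR-built, transcribed mutant libraries of each subunit of a heterodimeric triplet polymerase ribozyme. Selection annealed libraries to a biotinylated primer, the partner subunit and triplets, incubated them frozen at −7 °C, then gel-excised extended constructs for streptavidin-bead capture and RT-PCR. Genotypes with ≥10 input reads and ≥1 read per output were kept. Fitness is the logarithm, taken in base 2, of genotype enrichment divided by wild-type enrichment, using inverse-variance-weighted replicate averages.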

Variant | polymerase ribozyme fitness (log ratio)
A37C U144A | -0.958
C38A U56G G136C U146C | -3.92
A37C G94U A98U | -1.16
C38A C54A C63U G70U C75U C87A | ≤ -4.2
A37U A98G | -1.34
C36U C38A A91U C103A C116A | ≤ -4.2
A37C C57U G86A C95G C99G C131U | ≤ -4.2
C38A U55G A60G | 0.135
A37U U45A G46C C85U C105U U144A | ≤ -4.2
A37C G80C G92A C129A | ≤ -4.2
A37C C114U | -3.07
A37C C93U G136C G141U | -3.34
A37G C54A G141A | -2.78
C38G A60G C76G G81A G84U U102G C116U G128A | ≤ -4.2
A37U U56A C99U G143U | -3.88
A37C G92C G124C | -2.65
C38G A73U C95A U146G | -2.85
C36U G128C G140U | ≤ -4.2
C38A C96U C99U | -0.43
A37U C38U C76G C93U C96A C118U G143U | ≤ -4.2
C36G U55G A73U C108U C118A G133U | -4.17

Variant | polymerase ribozyme fitness (log ratio)
A37G A97G A98G | -2.55
A37U A64U | ≤ -4.2
A37U A142G G152U | -4.13
C38G C75U C93G | -4.16
C38A G58U C95G | -1.52
A37U C75A C85U G112C G124C C132G A142G U145A | ≤ -4.2
C36U C93G C103G C129A G141C | ≤ -4.2
A37G A52C C95U A98C | -3.46
A37U U78G U90C U101G U104G | ≤ -4.2
C36U G62A C72U | -3.23
A37C G83U C93G A97G G100U | ≤ -4.2
C38A C95A C118A | -1.55
A37G C93A U145G | -3.99
A37U C96U G126U | -2.91
A37C G92A U146G | -4.01
A37G G84A U101G A120G | -2.6
A37U U61A A89C C96A A98C U104A | ≤ -4.2
C36U C54A G58A G70A G84A C95A A115U G143U | ≤ -4.2
A37G U61C G94U U145C | ≤ -4.2
A37C G58C G65A | -3.6
A37G C85U | -2.1

Variant | polymerase ribozyme fitness (log ratio)
A37G U56A G84A C85U G133C | -4.13
A37U C95G | -3.51
A37U C87U | -0.99
A37U G58U C96U C118G U146C | -3.08
A37U U56C C69U | -2.76
C38A A47G U55A U56C A60G | -2.08
A37C C43U A73C U77C C93U C116A U135G G136U | ≤ -4.2
C36U U61G | -2.22
C36U C76U C85G | -2.42
C38A U56A | -0.602
C38A C96G | -0.458
A37G C95U | -2.43
A37C C96U G100C U102C C118G C131G | ≤ -4.2
C38A A122U A137G G141U A142G | -3.83
A37G C38A G48U | -2.25
A37U G83C A91C A98G G124U | ≤ -4.2
A37G A91C A138C G140U | ≤ -4.2
C38A U56G C93G C95A | ≤ -4.2
A37G A60G G83C C96U G141U | -2.58
C38A U53A A60U C93G C131A G141C | -3.94
A37C C105U | -0.652

Variant | polymerase ribozyme fitness (log ratio)
A37G U53A U134G | -3.7
C38A C63G A150G | -3
C36U C54A C95G C108U U109C C116U | ≤ -4.2
C38G G58C G84A A119U | -0.795
C36U A73U A138U G140C | ≤ -4.2
C36G U145A | -3.88
A37G A47C G100U G143A | ≤ -4.2
C38A C43G C105G C116U | ≤ -4.2
A37C A52C G84A | -3.24
C38A C54U A73U | -2.15
C38A U145C | -0.328
A37C A64C G71A C85A G126C | ≤ -4.2
C38A A40U G48U C87G C99U G124A G140C | ≤ -4.2
A37C A97G U151A | ≤ -4.2
A37U U135A | -2.34
C38A G84A G86C G117U | ≤ -4.2
A37U C85G C125U G141A | ≤ -4.2
C38A C87A | ≤ -4.2
C36G U56A G94U A97C A120U C125U | ≤ -4.2
A37U A73G | -1.1
A37C A49G C93U | -2.86
